Results: patent publication US20250019450A1 (DIAGONAL THERAPEUTICS, published 2025)
Positions count from the first letter of the chain named. Blank lines part the entries; values can stand above or below the binder they belong to.

Tests used:
[1] = biological target: T1, human IL-12Rβ2-huFc-his (R&D system), biotinylated (human, UniProt Q99665 24-622, limits assumed, biotinylated); experiment: ELISA, periplasmic extract
T1 construct: bought; captured on Neutravidin in the ELISA; also called Bio-huIL-12Rβ2-huFc-His
T1 sequence (looked up): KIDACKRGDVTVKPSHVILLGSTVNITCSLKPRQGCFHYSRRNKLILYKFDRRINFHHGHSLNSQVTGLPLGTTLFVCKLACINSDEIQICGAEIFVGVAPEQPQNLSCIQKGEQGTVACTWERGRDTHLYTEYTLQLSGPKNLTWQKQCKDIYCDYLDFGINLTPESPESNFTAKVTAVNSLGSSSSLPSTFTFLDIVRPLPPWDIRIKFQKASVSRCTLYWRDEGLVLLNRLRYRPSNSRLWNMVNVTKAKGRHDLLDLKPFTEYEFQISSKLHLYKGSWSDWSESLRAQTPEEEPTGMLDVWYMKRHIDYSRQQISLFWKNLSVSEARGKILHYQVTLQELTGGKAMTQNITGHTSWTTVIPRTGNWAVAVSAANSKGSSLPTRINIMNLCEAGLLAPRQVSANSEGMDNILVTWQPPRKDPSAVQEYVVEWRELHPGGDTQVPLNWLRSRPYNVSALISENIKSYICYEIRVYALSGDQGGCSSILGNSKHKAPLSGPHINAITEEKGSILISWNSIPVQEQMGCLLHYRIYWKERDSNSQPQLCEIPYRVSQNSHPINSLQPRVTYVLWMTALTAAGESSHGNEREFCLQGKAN

[2] = biological target: T2, cyno IL-12RB2 with C-terminal HA tag, transiently expressed on HEK-293T cells (cyno, UniProt A0A2K5VNI7 24-860); experiment: FACS, periplasmic extract, HEK-293T
T2 construct: whole, on cells; also called cyno IL-12Rβ2
T2 sequence: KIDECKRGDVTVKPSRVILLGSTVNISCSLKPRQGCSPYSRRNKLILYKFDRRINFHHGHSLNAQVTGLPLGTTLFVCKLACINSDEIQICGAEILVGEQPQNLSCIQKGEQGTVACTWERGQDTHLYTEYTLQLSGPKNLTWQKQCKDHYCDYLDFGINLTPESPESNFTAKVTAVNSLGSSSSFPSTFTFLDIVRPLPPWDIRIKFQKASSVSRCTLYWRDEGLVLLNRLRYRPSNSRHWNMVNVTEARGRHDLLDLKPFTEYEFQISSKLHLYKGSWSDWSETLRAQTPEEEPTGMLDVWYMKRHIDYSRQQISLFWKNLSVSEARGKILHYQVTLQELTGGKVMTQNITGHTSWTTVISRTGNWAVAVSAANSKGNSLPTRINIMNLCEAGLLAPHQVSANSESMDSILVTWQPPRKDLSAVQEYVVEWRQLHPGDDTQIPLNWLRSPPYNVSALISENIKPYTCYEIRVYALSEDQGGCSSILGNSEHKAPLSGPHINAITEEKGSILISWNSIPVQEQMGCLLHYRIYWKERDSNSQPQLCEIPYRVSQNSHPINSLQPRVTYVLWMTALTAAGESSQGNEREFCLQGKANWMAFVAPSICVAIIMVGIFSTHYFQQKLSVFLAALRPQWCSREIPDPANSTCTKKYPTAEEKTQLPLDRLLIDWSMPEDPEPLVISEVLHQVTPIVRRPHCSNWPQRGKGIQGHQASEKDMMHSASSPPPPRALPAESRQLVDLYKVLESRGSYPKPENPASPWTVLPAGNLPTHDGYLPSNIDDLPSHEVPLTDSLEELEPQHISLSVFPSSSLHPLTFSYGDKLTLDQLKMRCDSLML

[3] = biological target: T3, human IL-12RB2 with C-terminal HA tag, transiently expressed on HEK-293T cells (human, UniProt Q99665 24-862); experiment: FACS, periplasmic extract, HEK-293T
T3 construct: whole, on cells; also called human IL-12Rβ2
T3 sequence (looked up): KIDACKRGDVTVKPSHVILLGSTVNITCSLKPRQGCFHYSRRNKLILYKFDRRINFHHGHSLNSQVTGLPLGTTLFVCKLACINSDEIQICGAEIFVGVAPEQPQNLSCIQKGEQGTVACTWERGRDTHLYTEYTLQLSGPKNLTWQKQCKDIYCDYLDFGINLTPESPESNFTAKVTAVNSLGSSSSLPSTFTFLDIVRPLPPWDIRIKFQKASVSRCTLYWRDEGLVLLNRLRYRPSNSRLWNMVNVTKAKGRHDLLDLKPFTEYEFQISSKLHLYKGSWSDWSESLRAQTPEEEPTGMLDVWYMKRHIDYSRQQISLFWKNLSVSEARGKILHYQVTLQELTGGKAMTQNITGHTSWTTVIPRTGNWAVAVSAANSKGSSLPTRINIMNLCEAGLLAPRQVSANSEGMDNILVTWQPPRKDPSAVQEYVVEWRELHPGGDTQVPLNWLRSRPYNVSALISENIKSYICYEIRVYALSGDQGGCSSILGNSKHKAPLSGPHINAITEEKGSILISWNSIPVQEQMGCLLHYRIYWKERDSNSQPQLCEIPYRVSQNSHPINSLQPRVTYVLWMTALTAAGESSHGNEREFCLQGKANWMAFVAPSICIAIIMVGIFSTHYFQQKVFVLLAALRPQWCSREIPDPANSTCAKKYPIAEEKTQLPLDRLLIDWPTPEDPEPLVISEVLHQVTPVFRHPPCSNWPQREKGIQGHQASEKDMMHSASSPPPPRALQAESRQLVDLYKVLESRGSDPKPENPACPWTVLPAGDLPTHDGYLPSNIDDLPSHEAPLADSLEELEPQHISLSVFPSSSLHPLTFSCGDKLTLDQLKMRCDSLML

[4] = biological target: T4, IL-12 receptor endogenously expressed on THP-1 cells (UniProt P42701 24-662; Q99665 24-862); experiment: FACS, hybridoma supernatant, THP-1
T4 construct: whole, on cells

[5] = biological target: T5, human IL-12RB1 overexpressed on 293T cells (Example 2) (human, UniProt P42701 24-662); experiment: FACS, hybridoma supernatant, 293T
T5 construct: whole, on cells

[6] = biological target: T6, cyno IL-12RB1 overexpressed on 293T cells (Example 2) (cyno, UniProt A0A2K5VWV1 24-662); experiment: FACS, hybridoma supernatant, 293T
T6 construct: whole, on cells

- OD450 nm [1]: 1.71
- FOB [2]: 2.65 fold
- FOB [3]: 1.77 fold
B1: VHH13B2 (VHH)
VHH: QVQLVESGGGLVRPGGSLRLSCAASGFTFSSNGMHWFRQAPGKGLEWVSSIGSGGTSIYYADSVKGRFTISRDNAKNTLYLQMNSLKSDDTAVYYCSKEVTGATRGQGTQVTVSS

- OD450 nm [1]: 0.961
- FOB [2]: 1.28 fold
- FOB [3]: 3.17 fold
B2: VHH222B2 (VHH)
VHH: QVQLVESGGGLVQAGGSLRLSCAASGRIFSAYRMGWFRQAPGKEREFVAGITWRGQTTYYAASVKGRFTISKDNAKKTVYLQMNSLKPEETAVYYCAVETNGLGRWDRPSEYDYWGQGTQVTVSS

- OD450 nm [1]: 1.3
- FOB [2]: 2.75 fold
- FOB [3]: 1.63 fold
B3: VHH19B2 (VHH)
VHH: QVQLVESGGGLVQPGGSLRLSCAASGFTFSNYAMSWVRQAPGKGLEWVSAINSDGTSTSYADSVKGQFTISRDNAKNTLYLQMNSLKPEDTAVYYCTKWEGDTDSDYKFKDYWGQGTQVTVSS

- OD450 nm [1]: 1.35
- FOB [2]: 4.01 fold
- FOB [3]: 2.16 fold
B4: VHH361B2 (VHH)
VHH: QVQLVESGGGLVQTGASLRLSCAASGRTFGRYEMAWFRQAPGKEREFVAHISSSGLTTTYADSVKGRFTISRGNALNTVYLQMNSLKPEDTAVYYCAANVDGSAWSTLGAGMDYWGKGTLVTISS

- OD450 nm [1]: 0.174
- FOB [2]: 3.78 fold
- FOB [3]: 2.25 fold
B5: VHH190B2 (VHH)
VHH: QVQLQESGPGLVKPSQTLSLTCTVSGGSITTNYYYWSWIRQPPGKGLEWMGAIAYSGSTYYSPSLKSRTSISRDTSKNQFTLQLSSVTPEDTAVYYCASGINFYSNYPTLNEYDYWGQGTQVTVSS

- OD450 nm [1]: 1.67
- FOB [2]: 3.21 fold
- FOB [3]: 1.99 fold
B6: VHH322B2 (VHH)
VHH: QLQLVESGGGLVQAGGSLRLSCAASGRTFGIHGMGWFRQAPGKEREFAAAIRWSDGTTIHADSVKGRLTISRDNAKNTVYLQMNSLKPEDTAVYYCAATSNPQFGRNWYTVAAGVEYGYWGQGTQVTVSS

- OD450 nm [1]: 0.602
- FOB [2]: 3.06 fold
- FOB [3]: 1.68 fold
B7: VHH194B2 (VHH)
VHH: QLQLVESGGGLVQAGGSLRLSCAASGLTFSGYTVGWFRQAPGKEREFVAAINWSSAYTYSEFVKGRFTISRDNAKNTVYLQMSSLKPEDTAVYYCAARRSRTSWYASTAEAYDYWGQGTQVTVSS

- OD450 nm [1]: 2.2
- FOB [2]: 3.19 fold
- FOB [3]: 1.98 fold
B8: VHH294B2 (VHH)
VHH: B7 VHH with R98Q

- OD450 nm [1]: 2.1
- FOB [2]: 4.18 fold
- FOB [3]: 2.71 fold
B9: VHH185B2 (VHH)
VHH: QVQLVESGGGLVQAGGSLRLSCAASGRTFSRYRMGWFRQAPGKEREFVAAITKSGATTYDADSVKGRFTISRDNAKNTLYLQMNSLKPEDTAVYYCAASYHSNWWPKNADEYAYWGQGTQVTVSS

- Fold over buffer [4]: 41 fold
- Fold over parental 293T [5]: 117 fold
- Fold over parental 293T [6]: 32 fold
B10: 85801_01L02 (antibody, V domains shown)
VH: QVQLVHSGPEVKKPGASVKVSCKASGYTFTDYYMHWVRQAPGQGLEWMGWINPDSGGTNYAQKFQGRVTMTRDTSISTAYMELSRLRSDDTAVYHCAREGATSNFDYWGQGTLVTVSS
VL: DIQMTQSPSSLSASVGDRVTITCRASQGISNYLAWFQQKPGKAPTSLIYAASNLQGGVPSKFSGSGSGTDFTLTISSLQPEDFATYYCQQYRYYPFTFGPGTKVDIK
notes: also called 85801_01L02A

- OD450 nm [1]: 0.581
- FOB [2]: 2.32 fold
- FOB [3]: 1.73 fold
B11: VHH67B2 (VHH)
VHH: QVQLVESGGGLVQPGGSLRLSCAASGFTFSNYAMSWIRQGPERGFEWVSRINSGGGTTSYADSVKGRFTISRDNAKNTLYLQMNSLKPEDTAVYYCAKHSHPDYSSNYYRPGQGTQVTVSS

- OD450 nm [1]: 2.13
- FOB [2]: 3.47 fold
- FOB [3]: 2.25 fold
B12: VHH68B2 (VHH)
VHH: EVQLVESGGGLVQAGGSLKLSCAASGGTFSSYAMGWFRQAPGKEREFVAAIMRSGDTTVYVDSVKGRFTVSRDNAKNTVYLQMNSLKPEDAAVYYCAAGRPVTRTYYSTYTYPHDYDYWGQGTQVTVSS

- OD450 nm [1]: 3.19
- FOB [2]: 2.88 fold
- FOB [3]: 1.91 fold
B13: VHH289B2 (VHH)
VHH: B12 VHH with E1Q, D56G, D62N, T103S, Y106S, S108Y, T126S

- OD450 nm [1]: 0.794
- FOB [2]: 3.97 fold
- FOB [3]: 2.46 fold
B14: VHH278B2 (VHH)
VHH: B12 VHH with E1Q, A50V, V59A, Y95F, S108H

- OD450 nm [1]: 2.22
- FOB [2]: 2.69 fold
- FOB [3]: 1.68 fold
B15: VHH64B2 (VHH)
VHH: QVQLVESGGGLVQPGGSLRLSCAASGFTFSSKAMHWFRQAPGKGLEWVSSINSGGAITYYKDSVKGRFTVSRDNAKNILYLEMNSLKPEDTALYYCATDTDGRTRGQGTQVTVSS

- Fold over buffer [4]: 24 fold
- Fold over parental 293T [5]: 116 fold
- Fold over parental 293T [6]: 52 fold
B16: 85801_01D14 (antibody, V domains shown)
VH: EVQLVESGGGLVKPGGSLRLSCAASGFTFSNAWMNWVRQAPGKGLEWVGRIKSKTDGGTTDYAAPVKGRFTVSRDDPKNTLYLQMNSLKTEDTAVYYCTTDPGWEFDYWGQGILVTVSS
VL: DIQMTQSPSSLSASVGDRVTITCQASQDISNFLNWYQQKPGKAPNLLIYDASDLETGVPSRFSGSGSGTDFTFTISSLQPEDIATYYCQQYDNLPLTFGGGTKVEIK
notes: also called 85801_01D14A

- OD450 nm [1]: 0.626
- FOB [2]: 3.16 fold
- FOB [3]: 1.95 fold
B17: VHH307B2 (VHH)
VHH: QVQLVESGGGLVQAGGSLRLSCAASGRTFSRYIMGWFRQATGKEREFVAAISWSGLSTHYADSVQGRFTISRDNAENTVYLQMNSLKPEDTAVYYCAADRHWETRLLPREYDYWGQGTQVTVSS
